In this assay the target is recombinant human IL-18 (human) (UniProt Q14116). The assay is described as follows: cell-based or functional assay.

Changes are numbered by the printed parent chain. In names and notes the source's numbering stands.

recombinant human IL-18 (human), sequence (Q14116 37-193 limits assumed): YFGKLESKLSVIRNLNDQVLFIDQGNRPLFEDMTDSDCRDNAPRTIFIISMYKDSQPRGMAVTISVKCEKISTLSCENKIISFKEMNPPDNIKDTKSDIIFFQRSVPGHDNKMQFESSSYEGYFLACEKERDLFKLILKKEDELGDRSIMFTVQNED

B1: mIL18BPd (C45S).mFc (Fc fusion, not shown: a dimerising Fc or GST)
chain: TSAPQTTATVLTGSSKDPSSSWSPAVPTKQYPALDVIWPEKEVPLNGTLTLSCTACSRFPYFSILYWLGNGSFIEHLPGRLKEGHTSREHRNTSTWLHRALVLEELSPTLRSTNFSCLFVDPGQVAQYHIILAQLWDGLKTAPPPSQETLSSHSPVSRSAGPGVA
In the case of B1, the IC50 (M), HEK293/NFkB-luciferase bioassay came out at 1.67e-10 M.

B2: mIL18BPd.mFc (Fc fusion, not shown: a dimerising Fc or GST)
chain: B1 chain with S19C
Regarding B2, the IC50 (M), HEK293/NFkB-luciferase bioassay was 9.6e-11 M.
